According to patent publication US7803377B2, “Anti-DLL4 antibodies and methods using same” (Genentech, Inc., priority 2006, dated 2010):
Positions count from the first letter of the chain named. Each block holds one molecule with its values, some of them ahead of it.

Legend:
human Delta4 (ECD5.5) = target: T1, human Delta4 (ECD5.5) (Homo sapiens, UniProt Q9NR61); experiment: Surface plasmon resonance (BIAcore-3000) binding affinity and kinetics; details: human DLL4-His injected over coupled antibody, 25° C.
T1 construct: DLL4-His (C-terminal His-tagged human DLL4, amino acid 1-404); His (C)
Experimental: (§1) To determine the binding affinity of the anti-DLL4 Mabs, surface plasmon resonance (SRP) measurement with a BIAcore™-3000 was used (BIAcore, Inc., Piscataway, N.J.). Briefly, carboxymethylated dextran biosensor chips (CM5, BIAcore Inc.) were activated with N-ethyl-N′-(3-dimethylaminopropyl)-carbodiimide hydrochloride (EDC) and N-hydroxysuccinimide (NHS) according to the supplier's instructions. Anti-DLL4 antibody was diluted with 10 mM sodium acetate, pH 4.8, into 5 μg/ml before injection at a flow rate of 5 μl/minute to achieve approximately 500 response units (RU) of coupled antibody. Next, IM ethanolamine was injected to block unreacted groups. For kinetics measurements, two-fold serial dilutions of either human or murine DLL4-His molecules (0.7 nM to 500 nM) were injected in PBS with 0.05% Tween™ 20 at 25° C. at a flow rate of 25 μl/min. Association rates (kon) and dissociation rates (koff) were calculated using a simple one-to-one Langmuir binding model (BIAcore Evaluation Software version 3.2). The equilibrium dissociation constant (Kd) was calculated as the ratio koff/kon.

murine Delta4 (ECD5.5) = target: T2, murine Delta4 (ECD5.5) (Mus musculus, UniProt Q9JI71); experiment: as above; details: murine DLL4-His injected over coupled antibody, 25° C.
T2 construct: murine Delta4 (ECD5.5); His
T2 sequence (Q9JI71 27-405 limits assumed): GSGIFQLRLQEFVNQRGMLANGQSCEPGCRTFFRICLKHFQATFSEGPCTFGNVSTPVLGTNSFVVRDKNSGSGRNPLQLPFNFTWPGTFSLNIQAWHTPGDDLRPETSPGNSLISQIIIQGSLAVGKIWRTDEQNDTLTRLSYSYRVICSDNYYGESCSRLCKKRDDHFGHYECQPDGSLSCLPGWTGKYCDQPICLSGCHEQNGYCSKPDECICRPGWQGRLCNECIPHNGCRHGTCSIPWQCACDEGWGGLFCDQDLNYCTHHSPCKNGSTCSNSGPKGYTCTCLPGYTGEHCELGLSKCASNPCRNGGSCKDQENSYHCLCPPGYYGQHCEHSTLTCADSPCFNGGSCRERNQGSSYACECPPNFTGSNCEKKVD
Experimental: as §1

HUVEC = HUVEC proliferation on Notch activation by immobilized DLL4; assay type: cell-based, human; details: Notch activation by immobilized DLL4 protein
VEGFR2 = experiment: Real-time quantitative RT-PCR of VEGFR2 expression in HUVECs; assay type: cell-based, human; details: 2-D culture of HUVECs (36 hr)
Experimental: RNA extraction and Real-time quantitative RT-PCR. Extraction of total RNA from HUVECs in 2-D culture was done using RNeasy® Mini Kit (Qiagen) as per instructions of the manufacturer. To extract total RNA from HUVECs growing in fibrin gels, fibrin gels were treated with 10× trypsin-EDTA (Gibco) for 5 min to remove the top layer fibroblasts, followed by neutralization with 10% FBS in PBS. The gel clots were then removed from tissue culture wells and subjected to centrifugation (10K for 5 min) in microtubes to remove excessive fluid. The resulting gel “pellets” were lysed with lysis buffer (RNeasy® Mini Kit), and further processed as with HUVECs in 2-D culture. The quality of RNA was assessed using RNA 6000 Nano Chips and the Agilent 2100 Bioanalyzer (Agilent Technologies). Real-time quantitative RT-PCR reactions were done in triplicate using 7500 Real Time PCR System (Applied Biosystems). Human GAPDH was used as reference gene for normalization. The expression levels are expressed as the mean (±SEM) fold mRNA changes relative to control from 3 separate determinations. The forward and reverse primer and probe sequences for VEGFR2, TGFβ2 and GAPDH were as follows.
Therefore, while VEGF can act upstream of DLL4/Notch pathway, DLL4/Notch is capable of fine-tuning the response through negatively regulating VEGFR2 expression.

koff/10^−4 (human Delta4 (ECD5.5)): 0.66 10^−4
kon/10^5 (human Delta4 (ECD5.5)): 1.8 10^5
koff10^−4 (murine Delta4 (ECD5.5)): 0.73 10^−4
kon/10^5 (murine Delta4 (ECD5.5)): 3.3 10^5
B1: YW26.14: affinity matured anti-DLL4 antibody; HVR-H1/H2/H3 SEQ ID NO:2, 3, 9; HVR-L1/L2/L3 SEQ ID NO:10, 11, 14 (antibody, V domains shown)
VH: EVQLVESGGGLVQPGGSLRLSCAASGFSFRDNWISWVRQAPGKGLEWVGVINPNSGSTDYADSVKGRFTISADTSKNTAYLQMNSLRAEDTAVYYCARDNFGGYFDYWGQGTLVTVSS
VL: DIQMTQSPSSLSASVGDRVTITCRASQDVSTAVAWYQQKPGKAPKLLIYSASFLYSGVPSRFSGSGSGTDFTLTISSLQPEDFATYYCQQSVNGPATFGQGTKVEIK

koff/10^−4 (human Delta4 (ECD5.5)): 0.67 10^−4
kon/10^5 (human Delta4 (ECD5.5)): 1.9 10^5
koff10^−4 (murine Delta4 (ECD5.5)): 0.65 10^−4
kon/10^5 (murine Delta4 (ECD5.5)): 3.6 10^5
B2: YW26.34: affinity matured anti-DLL4 antibody; HVR-H1/H2/H3 SEQ ID NO:1, 6, 9; HVR-L1/L2/L3 SEQ ID NO:10, 11, 16 (antibody, V domains shown)
VH: B1 VH with S28T, R30T, V50L, N54T, D59I
VL: B1 VL with V92Y, N93T, A96S

B3: immobilized DLL4: immobilized C-terminal His-tagged human DLL4 (amino acids 1-404) used to activate Notch in HUVECs (protein)
chain: GSGVFQLQLQEFINERGVLASGRPCEPGCRTFFRVCLKHFQAVVSPGPCTFGTVSTPVLGTNSFAVRDDSSGGGRNPLQLPFNFTWPGTFSLIIEAWHAPGDDLRPEALPPDALISKIAIQGSLAVGQNWLLDEQTSTLTRLRYSYRVICSDNYYGDNCSRLCKKRNDHFGHYVCQPDGNLSCLPGWTGEYCQQPICLSGCHEQNGYCSKPAECLCRPGWQGRLCNECIPHNGCRHGTCSTPWQCTCDEGWGGLFCDQDLNYCTHHSPCKNGATCSNSGQRSYTCTCRPGYTGVDCELELSECDSNPCRNGGSCKDQEDGYHCLCPPGYYGLHCEHSTLSCADSPCFNGGSCRERNQGANYACECPPNFTGSNCEKKVD
modifications: left off: small tags and cut ends
HUVEC proliferation / growth (HUVEC): significant growth inhibition
VEGFR2 expression on Notch activation (VEGFR2): suppressed the expression of VEGFR2
